The nanobody polyreactivity screen of Harvey et al. (2022)

Test: yeast display, Sf9 membrane polyspecificity reagent, FACS + sequencing; frameworks hold sequencing errors
Method in brief: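 Synthetic nanobody libraries on Saccharomyces cerevisiae BJ5465 were galactose-induced for 36–48 hours, stained 1 hour at 4 °C with 10% biotinylated, detergent-solubilized Sf9 membrane reagent and enriched on streptavidin microbeads. FACS then separated cells into low and high (top ~1%) gates by anti-HA (expression) and streptavidin (reagent binding) fluorescence. Genes were colony-PCR amplified, MiSeq 2 × 250 sequenced and CDR-length filtered. A clone's polyreactivity label is that of its gate of origin.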

Sequence	polyreactivity (PSR sort gate)
QVQLVESGGGLVQAGGSLRLSCAATGINFRAYAMGWYRQAPGKERELVAAISSGGNTNYADSVKGRFTISRDNAKNTVYLQMNSLKPEDTAVYYCAAGYFWGRIKYYYWGQGTQVTVSS	high polyreactivity
QVQLVESGGGLVQAGGSLRLSCAATGLILGRNAMGWYRQAPGKERELVAAITGSGSTNYADSVKGRFTISRDNAKNTVYLQMNSLKPEDTAVYYCAADVRLDPTGLDYLDYDYWGQGTQVTVSS	low polyreactivity
QVQLVESGGGLVQAGGSLRLSCAATGRIFVNAMGWYRQAPGKERELVAAINTRGGSTYYADSVKGRFTISRDNAKNSVYLQMNSLKPEDTAVYYCAARFYTSSRYNYWGQGTQVTVSS	high polyreactivity
QVQLVESGGGLVQAGGSLRLSCAATGRIFYRYSMGWYRQAPGKERELVAAIRYSGGTTYADSVKGRFTISRDNAKNTVYLQMNSLKPEDTAVFYCAARASLWGGFESWGQGTQVTVSS	high polyreactivity
QVQLVESGGGLVQAGGSLRLSCAATGRNFAVNAIGWYRQAPGKERELVASIRWSGGGTYYADSVKGRFTISRDNAKNTVYLQMNCLKPEDTAVYYCKALRKTYRLDYWGQGTQVTVSS	high polyreactivity
QVQLVESGGGLVQAGGSLRLSCAATGRTFIPYAMGWYRQAPGKERELVAAIRTTGGSTYYADSVKGRFTISRDNAKNTVYLQMNSLKPEDTAVYYCAATSRQRPYDYWGQGTQVTVSS	high polyreactivity
QVQLVESGGGLVQAGGSLRLSCAATGRTFRVYAIGWYRHAHAKEREFVATISVRGGSTYYADSVKGRFTISRDNAKNTVYLQMNSLKPEDTAVYYCAADSYPYVYALYDYWGQGTQVTVSS	low polyreactivity
QVQLVESGGGLVQAGGSLRLSCAATGRTFYPYVMGWYRQAAGKERDLVASITDSGGNTYYADSVKGRFTISRDHAKNTVYLQMNSLKPEDTAVYYCNASFYYPSRRGTFQYNYWGHGTQVTVSS	low polyreactivity
QVQLVESGGGLVQAGGSLRLSCAATGRTFYVYAMGWYRQAPGKERELVADITWSGGSTYADSVKGRFTISRDNAKNTVYLQMNSLKPEDTAVYYCAAEWQTWYGVEYDYWGQGTQVTVSS	high polyreactivity
QVQLVESGGGLVQAGGSLRLSCAATGRTLVLYAMGWYRQAPGKERELVAAITWSGDSTYYADSVKGRFSISRDNAKYTVYLQMKSLKPEDTAVYYCAATYLNAKRGLRYDYWGQGTQVSVSS	low polyreactivity
QVQLVESGGGLVQAGGSLRLSCAATGRTSFRYTMGWYRQAPGKERELVAGISGSGGRTYYADSVKGRVTISRDNAKNTVYLQMNSLKPEDTAVYYCAAAWYTSHAKGKGGYWGQGTQVTVSS	high polyreactivity
QVQLVESGGGLVQAGGSLRLSCAATGSILEYYVMGWYRLAPGKERELVAAIRGGGSTYYADAVKGRFTISRDNAKNSVYLQMNSLKPEDTAVEYCAKDSQPARDFDYWGQGTQVTVSS	low polyreactivity
QVQLVESGGGLVQAGGSLRLSCAATGSTFDPNVMGWYRQAPGKEREFVAAISSRSGSTSYADSVKGRFTISRDNAKNTVYLQMNCLKPEVTAVYYCAARVYGLPLRMYSWGQGTQVTLSS	high polyreactivity
QVQLVESGGGLVQAGGSLRLSCAATGSTFFIYAMGWYRQAPGKERELVAAISGSGGTTYYADSVKGRFTISRDNAKNTVYLHMNSLKPEDTAVYYGAARTFSAFWRGGYDYWGQGTQVTVSS	low polyreactivity
QVQLVESGGGLVQAGGSLRLSCAATGSTIEANTMGWYRQAPGKERELVASITTSGGSTNYADSVKGRFTISRDNAKNTVYLQMNSLKPEDTAVYYCAVRSTYARWNWRTADSSRDYWGQGTQVTVSS	low polyreactivity
QVQLVESGGGLVQAGGSLRLSCAATGSTIRSYGMGWYRQAPGKERELVASISWSGGSTYYADSVKGRFTISRDNAKNTVYLQMNSLKPEDTAVYYCAAGTLYSLYFGRHGYWGQGTQVTVSS	low polyreactivity
QVQLVESGGGLVQAGGSLRLSCAATGSTSGKNAMGWYRQAPAKERELFAAIRNSGGTTYYADSVKGRFTISRDNAKNTVYLQMNSLKPEDTAVYYCATRYYLNFLDGYNYWGQGTQVTVSS	high polyreactivity
QVQLVESGGGLVQAGGSLRLSCAATGYIIQHYAMGWYRQSAGKERELVAAITSGGSTTYADSVKWRFTISRDNAKNTVFLQMNSLKPEDSAVYYCKALRRDRYTRKGYEYWGQGTQVTVSS	high polyreactivity
QVQLVESGGGLVQAGGSLRLSCAAYGFIFPGNAMGWYIQAPGKERELVAAISNSGSRTYYADSVKGRFTISRDNAKNTVYLQMNSLKPEDTAVYYCNADVHNRGWPYDYWGQGTQVTVSS	low polyreactivity
QVQLVESGGGLVQAGGSLRLSCAAYGFTFYLNAMGWYRPAPGKERELVAAISYSDGSTYYADSVKGRFTISRDNAKNTVYLQMTSLKPEDTAVYYCAADTTDPGGAYQLMDYWGQGTQVSVSS	low polyreactivity
QVQLVESGGGLVQAGGSLRLSCAAYGGFFWYYTMGRYRQAPGKEREFVATITKRGGRTYYADSVKGRFTISRDNAKITVYLQMNSLKPEDTAVYFCNALGGPKSVRFDYWGQGTQVTVSS	high polyreactivity

Sequence	polyreactivity (PSR sort gate)
QVQLVESGGGLVQAGGSLRLSCAAYGGIFGRYAMGWYRQAPGKERELVAAISKRGGSTYYADSVKGRVTISRDNAKNTVYLQMNSLKPEETAVYYCNAAQSVELGYDYCGQGTQVTVSS	high polyreactivity
QVQLVESGGGLVQAGGSLRLSCAAYGGTFPAYTMGWYRQAPGKERELVAAITWSGGNTYYADSVKGRFTISRDNAKNTVYLQMNSLKPQDTAVYYCAAEYWQYQWSVRIDYEYWGQGTQVNVSS	high polyreactivity
QVQLVESGGGLVQAGGSLRLSCAAYGGTFYRYAMGWYRQAPGKERELVAVISKRGGTTYYADSVKGRFTISRDNAKNTVYLQMNSLKPEDTAVYYCADRPYYWGQGTQVTVSS	high polyreactivity
QVQLVESGGGLVQAGGSLRLSCAAYGGTLPVNAMGWYRQAPVKERELVAAITTGTSTNYADSVKGRFTISRDNAKNTVYLQMNSLKPEDNAVYYCAKDQADFAYGYWGEGTQVTVSS	low polyreactivity
QVQLVESGGGLVQAGGSLRLSCAAYGIIFTDYAMGWYRQAPGKERELVAANSSGGGSTYYADSVKGRFTISRDNAKNTVYLQMNSLKPEDTAVYYFAAQSSGSYGFDHWGQGTQVTVSS	high polyreactivity
QVQLVESGGGLVQAGGSLRLSCAAYGLTFGYYVMGSYRQAPGKERELVADINFSGGSTYYADSVKGRFTISRDNAKNTVYLHMNSLKTEDTAVYYCNAVVYRFTVSSGYESWGEGTQVTVSS	low polyreactivity
QVQLVESGGGLVQAGGSLRLSCAAYGLTFHYYDMGWYRQAPGKERELVAAISAGGVNTYYADSVKGRFTISRDNAKNTVYLQMNSLKPEDTAVYFCAADYYVDVWSYTYGYWGQGTQVTVSS	high polyreactivity
QVQLVESGGGLVQAGGSLRLSCAAYGLTFYFYAMGWYRQAPGKERELVAAIDWGGGSTYYADSVKGRFTISRDNAKNTVYLQMNSLKPEDTAVYYCAARGYYYNYDVNYWGQGTQVTVSS	low polyreactivity
QVQLVESGGGLVQAGGSLRLSCAAYGRIFNEYAMGWYRQAPGKERELVAAITYSDDSTYYADSVKGRFTISRDNAKNTVYLQMISLKPEDTAVYYRNADTPVWDGHAYPVDYWGQGTQVTVSS	low polyreactivity
QVQLVESGGGLVQAGGSLRLSCAAYGRIFRGYAMGRYRQAPGKEREFVAAITKNGGSTYYADSVKGRFTISRDNAKNTVYLQMNSLKPEDTAVYYCAVRALDPYTGKSDYWGQGTQVTVSS	low polyreactivity
QVQLVESGGGLVQAGGSLRLSCAAYGRIFVFYDMGWYRQAPGKDRELVATISFRGGSTYYADSVKGRFTISRDNAKNTVYLQMNCLKPEDTAVYYCAKENKRGYSTSGYYYWGQGTQVTVSS	low polyreactivity
QVQLVESGGGLVQAGGSLRLSCAAYGRISAMGWYRQAPGKERELVAAISRGGSTYYADSVKGRFTISRDNAKNTVYLQMNSLKPEDTAVYYCARRYASTGYDYWGQGTQVTVSS	high polyreactivity
QVQLVESGGGLVQAGGSLRLSCAAYGRTFGPNVMGWYRQAPGKERELVAVITSSGGRTYYADSVKGRFTISRDNAKNTVFLQMNSLKPEDTAVYSCAADAKKFVGTKNAEHVYWGQGTQVTVSS	low polyreactivity
QVQLVESGGGLVQAGGSLRLSCAAYGRTFSWNAMGWYRQAPGKERELVAGITGRGRSTYYADSVKGRFTISRDNAKNTVYLQMIRLKPEDTAVYYCAARNWQALYYGYGYDYWGHGTQVTVSS	high polyreactivity
QVQLVESGGGLVQAGGSLRLSCAAYGRTIFFNAMGWYIQAPGKERELVAAISRGGSRTFYADSVKGRFTISRDNAKNTVYFQMNSLKPEDPAVYYCNAVAQSGRYDYWGQGTQVTVPS	high polyreactivity
QVQLVESGGGLVQAGGSLRLSCAAYGSIFGYYAMGWYRQAPVKERALVAAITWSGDSTYYADSVKGRFTISRDNAKNTVYLQMKSLNPEDTAVYYCSARQFVHTRYFSFGYWGQGTQVTVSS	low polyreactivity
QVQLVESGGGLVQAGGSLRLSCAAYGSIFHVYAMGWYRQAPGKERELVAAIDRSGGSTYYADSVKGRFTISRDNAKNTVYLQMNSLKPEDTSVYYCAKDVLGGQITDGVGNDYWGQGTQVTLSS	low polyreactivity
QVQLVESGGGLVQAGGSLRLSCAAYGSIFLYYTMGRYRQAPGKERELVAAISRSGGSTYYADSEKGRFTISRDNALNTVYLQMNSLKPEDTAVYFCGSRSGYIYEYWGQGTQVTVSS	high polyreactivity
QVQLVESGGGLVQAGGSLRLSCAAYGSIFRVYAMGWYREAAGKERELVATISWSAGSTYYADSVKGRFTISRDNAKNTVYLQMNSLKPEDTAVYYCAADPVGYYDPSDYWGQGTQVTVSS	low polyreactivity
QVQLVESGGGLVQAGGSLRLSCAAYGSIFSYNAMGWYRPAPGKERELVAAITKSGGRTYYADSVKGRFTISRANAKNTVYLQMNSLKPEDTAVYYCNARSGSQYDYWGQGTQVTVSS	high polyreactivity
